Measurements: patent US20230272088A1 (SYNTHEKINE, published 2023)

T1: extracellular domain of mIFNGR1 (mouse, UniProt P15261 26-254, conjugated to Alexa647 (site not stated))
T1 construct: Origin and tags of the murine antigen are not described; UniProt P15261 residues 26-254; also called mIFNGR1-ECD; murine IFNGR1 ECD
T1 sequence: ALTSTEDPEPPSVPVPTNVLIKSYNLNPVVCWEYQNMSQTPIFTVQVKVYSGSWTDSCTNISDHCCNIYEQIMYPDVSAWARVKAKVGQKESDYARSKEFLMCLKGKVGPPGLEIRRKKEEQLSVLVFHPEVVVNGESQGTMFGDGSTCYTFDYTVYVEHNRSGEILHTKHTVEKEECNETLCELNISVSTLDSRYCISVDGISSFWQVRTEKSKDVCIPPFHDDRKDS

T2: extracellular domain of hIFNGR1 (human, UniProt P15260 18-245, conjugated to Alexa647 (site not stated))
T2 construct: UniProt P15260 residues 18-245; also called hIFNGR1-ECD; human IFNGR1 ECD
T2 sequence: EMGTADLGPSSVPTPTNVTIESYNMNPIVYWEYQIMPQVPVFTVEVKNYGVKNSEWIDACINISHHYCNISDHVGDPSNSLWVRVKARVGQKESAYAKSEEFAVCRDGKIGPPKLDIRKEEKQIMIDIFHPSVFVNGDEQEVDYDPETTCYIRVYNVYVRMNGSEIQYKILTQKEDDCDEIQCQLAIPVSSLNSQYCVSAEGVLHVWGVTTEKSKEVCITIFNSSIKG

T3: extracellular domain of hIFNGR2 (human, UniProt P38484 28-247, conjugated to Alexa647 (site not stated))
T3 construct: also called hIFNGR2-ECD; human IFNGR2 ECD
T3 sequence: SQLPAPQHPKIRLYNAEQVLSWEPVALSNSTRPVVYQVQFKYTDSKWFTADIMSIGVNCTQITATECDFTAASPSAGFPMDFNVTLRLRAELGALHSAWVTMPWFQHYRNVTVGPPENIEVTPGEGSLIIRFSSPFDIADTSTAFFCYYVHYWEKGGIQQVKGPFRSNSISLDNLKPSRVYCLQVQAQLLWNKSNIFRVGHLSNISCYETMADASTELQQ

B1: DR905 (VHH)
VHH: EVQLVESGGGLVQAGGSLRLSCVASGRTFTGYAMGWFRQAPGKEREFVAVITWSGATTYYSASVKGRFTLSRDNAKNTVYLQMNSLKSEDTAVYYCAIRIRDGVSPENPNEYGYWGQGTQVTVSS
notes: also called anti-IFNGR1 sdAb VHH DR905
B2: DR906 (VHH)
VHH: EVQLVESGGGLVQAGGSLRLSCAASGSTFSTYVMGWFRQAPGKEREFVAAISRSGGTTTYADSVKGRFDISRDNGKNTLFLQMNSLIPEDTAAYYCAARAGPAIGRTANDYHSWGQGTLVTVSS
notes: also called anti-IFNGR1 sdAb VHH DR906
B3: DR909 (VHH)
VHH: EVQLVESGGGLVQAGGSLRLSCAASGRTFGTSFGALSMGWFRQAPGKEREFVAAITRNTGRTFYADSVKDRFTISRDNAKNTASLQMNSLEPEDTAVYICAATNSYDDLRRSYAYNYWGQGTQVTVSS
notes: also called anti-IFNGR1 sdAb VHH DR909
B4: DR910 (VHH)
VHH: EVQLVESGGGLVQTGGSLRLSCAASGRTFSSYAMAWFRQAPGKEREFVAAISILGGSADYEDSVQGRFTISRDNAKNTMYLQMNSLKPEDTAVYYCAARRPAPSDSYWSSTSYAYWGQGTLVTVSS
notes: also called anti-IFNGR1 sdAb VHH DR910
B5: DR911 (VHH)
VHH: EVQLVESGGALVQAGGSLRLSCTVSGRSFSTYAMAWFRRAPGKERELVSAITVGGGSTYYVDSVKGRFTISRENAKNTLYLQMNNLKPEDTAIYICAARDYRRRSYAPEAEQYDYWGQGTQVTVSS
notes: also called anti-IFNGR1 sdAb VHH DR911
B6: DR912 (VHH)
VHH: EVQLVESGGGLVQAGGSLRLSCAPSGRTFSSYAMAWFRQPPGKEREFVAAITVSGASTYYADSVKGRFTISRDNAKNSMYLQMNSLKPEDTAVYYCAAGGPGTIFPDYDYWGQGTQVTVSS
notes: also called anti-IFNGR1 sdAb VHH DR912
B7: DR913 (VHH)
VHH: EVQLVESGGGLVQAGGFLRLSCAASGRTFSSYAMGWFRQIPGKERELVAAISSWSGGSTYYADSVKGRFTISRDNAKNTVYLQMLSLKPEDTAVYYCTTGDYYSDYFKYDNENWGKGTQVTVSS
notes: also called anti-IFNGR1 sdAb VHH DR913
B8: DR914 (VHH)
VHH: EVQLVESGGGLVQAGGSLTLSCVASGRAFSNSAMAWFRQTPGKEREFVSAISRGGGSTDYADSVKGRFTISKDNAKNTVYLQMNSLKPEDTAVYYCAMRYYSGRYYESLEYDYWGQGTQVTVSS
notes: also called anti-IFNGR1 sdAb VHH DR914
B9: DR915 (VHH)
VHH: EVQLVESGGGLVQAGGSLRLSCAAARRTLHNFAMAWFRQAPGKEREFVAAISKGGGSADYADSVKGRFTISRDNAKNTVYLQMNSLKPEDTAVYYCAANDLASYSDSSYTSTSRYDYWGQGTQVTVSS
notes: also called anti-IFNGR1 sdAb VHH DR915
B10: DR916 (VHH)
VHH: EVQLVESGGGLVQPGGSLRLSCTASGRPRTTYAMGWFRQAPGKEREIVAAISKAGGSTYVADSAKGRFAISKDNAKNTVYLQMNSLKPEDTAVYYCAARAGFAAQIFEYDYWGQGTLVTVSS
notes: also called anti-IFNGR1 sdAb VHH DR916
B11: DR917 (VHH)
VHH: EVQLVESGGGLVQAGGSLRLSCAASGRTFSGYNMGWFRQAPGKEREFVAAIAWAGSRTYYTDSVKGRFTISRDNAKNTMYLQMNTLRPEDTAVYYCAAHDETYYRLDRVDLYTHWGQGTLVTVSS
notes: also called anti-IFNGR1 sdAb VHH DR917
B12: DR918 (VHH)
VHH: EVQLVESGGGLVQAGGSLRLSCATSGLTDSTYGMAWFRQAPGKEREFVAAISRAGGSADHADSVKGRFTVSRDNAKKMVYLQMNSLKPEDTAVYYCASGRSYSSPYDYFNALAYSYWGQGTQVTVSS
notes: also called anti-IFNGR1 sdAb VHH DR918
B13: DR920 (VHH)
VHH: EVQLVESGGGLVQAGGSLRLSCAASGRSFANYAMGWFRQAPGKERETVAAISRGGGSTWYADSVKGRFTISKDNAKNTVYLQMNSLKPEDTAIYYCAARSYSGSYTYSFGEYDYWGQGTQVTVSS
notes: also called anti-IFNGR1 sdAb VHH DR920
B14: DR922 (VHH)
VHH: QVQLVESGGGLVRAGGSLRLSCAASGSITSINTMGWFRQAPGKQRELVAAITSGGSTNYADSVKGRFTISRDNARNTVYLQMYSLKPEDTAVYYCEADSMYFRGQGTQVTVSS
notes: also called anti-IFNGR1 sdAb VHH DR922
B15: DR923 (VHH)
VHH: QVQLVESGGGLVQAGGSLRLSCAASRRTFMTYAMGWFRQAPGKEREFVAAISWSSGSTYYADSVKGRFTISRDNAKNTMYLQMNSLKPEDTAVYYCTASSIATMYGPNDYAGQGTLVTVSS
notes: also called anti-IFNGR1 sdAb VHH DR923
B16: DR924 (VHH)
VHH: QVQLVESGGGLVQAGGSLRLSCTASGRTFSRYAMGWFRQAPGKEREFVATISRSGGTTSYANSVKGRFTISRDNAKNTVYLQMNSLKTEDTAVYNCAARDGPAMGVFGSDYDYWGQGTLVTVSS
notes: also called anti-IFNGR1 sdAb VHH DR924
B17: DR925 (VHH)
VHH: EVQLVESGGGLVQAGGSLVLSCAASGRTFSRYAMGWFRQAPGKEREFVAAISIGGGSADYADTVKGRFTISRNNAKNTMYLQMNSLKPEDTAVYYCAARTPRPSSSYFTPQDYEYWGQGTLVTVSS
notes: also called anti-IFNGR1 sdAb VHH DR925
B18: DR926 (VHH)
VHH: EVQLVESGGGLVQAGGSLRLSCAASGRTFSRYAMNWFRQAPGKEREFVAAISWSSGNTYVADSVKGRFTISRDNAKNTMYLQMNNLAPEDTAVYYCAATTIATMSDENTYWGQGTQVTVSS
notes: also called anti-IFNGR1 sdAb VHH DR926
B19: DR953 (VHH)
VHH: QVQLVESGGGLVQAGDSLRLSCAASGPTFSTYAMAWFRQAPGKEREFVAAITQSGRTTYYEDSVKGRFTISKDNAKNTLYLQMNSLQPEDTAVYYCAARDLWSDSPDDWRIYSFWGQGTQVTVSS
notes: also called anti-IFNGR2 sdAb VHH DR953
B20: DR956 (VHH)
VHH: EVQLVESGGGLVQAGGSLRLSCAASGRTFSSLAMAWFRQAPGKEREFVAATTILGGSADYGDPVKGRFTISRDNAKNTVYLQMNSLKPEDTAVYYCTGRRPAPSDNYWSPASYAYWGQGTQVTVSS
notes: also called anti-IFNGR2 sdAb VHH DR956
B21: DR958 (VHH)
VHH: QVQLVESGGGLVQAGDSLTLSCTASGRTFSGYNMGWFRQAPGKERDFVAAINWIGGATYYADSVKGRFTISRDNAKNTVYLQMNSLKPEDTAVYYCHRYSEKFYSGKDYYTRDYDYWGQGTQVTVSS
notes: also called anti-IFNGR2 sdAb VHH DR958

Molecular target: T1, extracellular domain of mIFNGR1
Test: flow cytometry, yeast-displayed VHH, 100 nM Alexa647-conjugated antigen
Description: (§1) Binding of individual VHH to human and murine antigen was tested by flow cytometry. Briefly, 2E5 yeast cells expressing a single sdAb clone were added to each well of a 96 well plate. The first plate was incubated with 100 nM of human antigen conjugated to Alexa647 whereas the second plate was incubated with 100 nM of murine antigen conjugated to Alexa647. Yeast cells were washed 3 times with PBS containing 1% bovine serum albumin. Yeast cells were analyzed using flow cytometry and clones showing a mean fluorescence intensity of greater than 1000 were considered as binding molecules. Specificity of sdAbs was confirmed by incubating yeast cells with a irrelevant protein conjugated to Alexa647. Positive clones were sequenced, and sequences analyzed to identify unique clonotypes.

Binding result, binds:
B1, B2, B3, B4, B5, B6, B7, B8, B9, B10, B11, B12, B13, B14, B15, B16, B17, B18

Molecular target: T2, extracellular domain of hIFNGR1
Test: as above
Description: as §1

Binding result, binds:
B1, B2, B3, B4, B5, B6, B7, B8, B9, B10, B11, B12, B13, B14, B15, B16, B17, B18

Molecular target: T3, extracellular domain of hIFNGR2
Test: flow cytometry

Binding result, binds:
B19, B20, B21
